# Biological target: purified recombinant human GAPDH protein (human) (UniProt P04406)
# Experiment: SPR
# Sequence of purified recombinant human GAPDH protein (human) (P04406 whole entry): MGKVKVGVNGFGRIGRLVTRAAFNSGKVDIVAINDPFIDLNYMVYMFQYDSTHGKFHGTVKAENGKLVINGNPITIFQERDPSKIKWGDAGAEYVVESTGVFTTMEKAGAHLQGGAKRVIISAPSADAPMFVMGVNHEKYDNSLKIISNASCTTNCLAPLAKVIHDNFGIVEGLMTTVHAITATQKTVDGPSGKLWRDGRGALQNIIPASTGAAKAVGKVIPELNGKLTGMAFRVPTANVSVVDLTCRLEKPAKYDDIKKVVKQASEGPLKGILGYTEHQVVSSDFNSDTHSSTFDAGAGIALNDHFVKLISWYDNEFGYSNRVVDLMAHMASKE
# Sequence of DENV2 NS3 helicase domain (domain or fragment) (P14340 1644-2093 limits assumed): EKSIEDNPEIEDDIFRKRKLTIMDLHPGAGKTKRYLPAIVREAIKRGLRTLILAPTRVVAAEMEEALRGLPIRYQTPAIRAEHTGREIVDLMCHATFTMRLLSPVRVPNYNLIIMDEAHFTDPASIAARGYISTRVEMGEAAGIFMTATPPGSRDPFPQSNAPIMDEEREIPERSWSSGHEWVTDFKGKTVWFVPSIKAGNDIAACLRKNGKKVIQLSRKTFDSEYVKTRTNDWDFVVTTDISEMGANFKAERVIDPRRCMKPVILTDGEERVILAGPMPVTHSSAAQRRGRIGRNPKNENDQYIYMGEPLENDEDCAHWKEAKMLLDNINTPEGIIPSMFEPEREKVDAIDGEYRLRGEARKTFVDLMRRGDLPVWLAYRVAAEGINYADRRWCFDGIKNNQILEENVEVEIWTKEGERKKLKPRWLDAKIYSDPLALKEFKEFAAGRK
# Sequence of DENV2 NS3 protease domain (domain or fragment) (P14340 1476-1660 limits assumed): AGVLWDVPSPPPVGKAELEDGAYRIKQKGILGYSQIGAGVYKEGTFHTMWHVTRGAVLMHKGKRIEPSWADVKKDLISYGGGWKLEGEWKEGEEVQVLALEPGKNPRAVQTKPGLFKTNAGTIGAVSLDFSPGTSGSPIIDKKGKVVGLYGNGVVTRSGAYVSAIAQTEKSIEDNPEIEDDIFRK
row,Substance,Kd [µM]
1,DENV2 NS3 helicase domain (domain or fragment),2.5
2,DENV2 NS3 protease domain (domain or fragment),2.4
